Laboratory results taken from paper PMC9482650, “Quantitative fragmentomics allow affinity mapping of interactomes” (Nature Communications, 2022).

T1: LNX2_2, Q8N448
T1 sequence (Q8N448 334-432, limits assumed, looked up): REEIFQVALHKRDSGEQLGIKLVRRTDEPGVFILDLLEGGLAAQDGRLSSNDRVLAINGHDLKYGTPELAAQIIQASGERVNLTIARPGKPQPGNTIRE

T2: DFNB31_1, Q9P202
T2 sequence (Q9P202 135-233, limits assumed, looked up): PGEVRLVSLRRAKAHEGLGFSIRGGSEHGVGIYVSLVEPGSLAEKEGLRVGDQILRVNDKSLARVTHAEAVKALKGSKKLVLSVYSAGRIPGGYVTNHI

T3: PDZD7_3, Q9H5P4
T3 sequence (Q9H5P4 857-944, limits assumed, looked up): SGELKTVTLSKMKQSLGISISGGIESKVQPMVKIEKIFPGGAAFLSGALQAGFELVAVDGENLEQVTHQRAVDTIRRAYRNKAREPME

T4: DFNB31_3, Q9P202
T4 sequence (Q9P202 811-907, limits assumed, looked up): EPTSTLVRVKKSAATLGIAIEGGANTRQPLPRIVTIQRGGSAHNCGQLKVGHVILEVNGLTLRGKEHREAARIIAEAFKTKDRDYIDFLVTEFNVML

T5: MPP6, Q9NZW5
T5 sequence (Q9NZW5 125-219, limits assumed, looked up): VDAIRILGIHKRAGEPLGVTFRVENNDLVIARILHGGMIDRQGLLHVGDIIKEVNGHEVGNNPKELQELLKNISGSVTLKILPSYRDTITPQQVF

T6: SHANK1, Q9Y566
T6 sequence (Q9Y566 658-767, limits assumed, looked up): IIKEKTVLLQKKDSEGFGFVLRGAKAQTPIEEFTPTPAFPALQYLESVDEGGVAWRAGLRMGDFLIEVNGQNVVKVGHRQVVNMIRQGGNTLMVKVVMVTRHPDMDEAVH

T7: APBA3_1, O96018
T7 sequence (O96018 389-490, limits assumed, looked up): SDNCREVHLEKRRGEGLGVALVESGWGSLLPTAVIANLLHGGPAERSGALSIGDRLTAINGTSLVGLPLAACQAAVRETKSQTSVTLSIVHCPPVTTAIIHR

T8: DLG3_3, Q92796
T8 sequence (Q92796 374-475, limits assumed, looked up): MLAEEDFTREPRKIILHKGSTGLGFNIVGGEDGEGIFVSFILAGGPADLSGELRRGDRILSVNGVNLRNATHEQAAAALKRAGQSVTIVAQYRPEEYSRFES

T9: MPDZ_12, O75970
T9 sequence (O75970 1857-1958, limits assumed, looked up): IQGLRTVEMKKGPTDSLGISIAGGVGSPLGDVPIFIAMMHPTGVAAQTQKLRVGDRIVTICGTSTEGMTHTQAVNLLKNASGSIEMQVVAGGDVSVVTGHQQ

T10: MPP2, Q14168
T10 sequence (Q14168 180-250, limits assumed, looked up): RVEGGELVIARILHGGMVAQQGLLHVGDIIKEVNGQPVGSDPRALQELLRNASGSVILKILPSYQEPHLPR


What was measured:
Assay in all cases: holdup assay
Set-up in all cases: key: below the threshold = too weak to quantify, mostly under pKd 3.1 to 4
Conditions in all cases: plain residues with an end cap or a label only (N-terminal biotin on a linker: ado-ado)
TJP1_3, Q07157 = target: TJP1_3, Q07157
GRIP2_4, Q9C0E4 = target: GRIP2_4, Q9C0E4
MAGI2_6, Q86UL8 = target: MAGI2_6, Q86UL8
Inadl_8, Q8NI35 = target: Inadl_8, Q8NI35
LNX2_2, Q8N448 = target: T1, LNX2_2, Q8N448
DFNB31_1, Q9P202 = target: T2, DFNB31_1, Q9P202
PDZD7_3, Q9H5P4 = target: T3, PDZD7_3, Q9H5P4
DFNB31_3, Q9P202 = target: T4, DFNB31_3, Q9P202
MPP6, Q9NZW5 = target: T5, MPP6, Q9NZW5
LIMK2, P53671 = target: LIMK2, P53671
Inadl_1, Q8NI35 = target: Inadl_1, Q8NI35
GRIP2_5, Q9C0E4 = target: GRIP2_5, Q9C0E4
SHANK1, Q9Y566 = target: T6, SHANK1, Q9Y566
MAGI3_2, Q5TCQ9 = target: MAGI3_2, Q5TCQ9
LDB3, O75112 = target: LDB3, O75112
GRIP2_3, Q9C0E4 = target: GRIP2_3, Q9C0E4
MAGI2_4, Q86UL8 = target: MAGI2_4, Q86UL8
APBA3_1, O96018 = target: T7, APBA3_1, O96018
DLG3_3, Q92796 = target: T8, DLG3_3, Q92796
PTPN3, P26045 = target: PTPN3, P26045
DLG4_1, P78352 = target: DLG4_1, P78352
MPDZ_12, O75970 = target: T9, MPDZ_12, O75970
CASK, O14936 = target: CASK, O14936
FRMPD3, Q5JV73 = target: FRMPD3, Q5JV73
GRIP2_6, Q9C0E4 = target: GRIP2_6, Q9C0E4
SCRIB_3, Q14160 = target: SCRIB_3, Q14160
DLG4_2, P78352 = target: DLG4_2, P78352
IL16_3, Q14005 = target: IL16_3, Q14005
MPP2, Q14168 = target: T10, MPP2, Q14168

MAGI2_6, Q86UL8, sequence (Q86UL8 1141-1229): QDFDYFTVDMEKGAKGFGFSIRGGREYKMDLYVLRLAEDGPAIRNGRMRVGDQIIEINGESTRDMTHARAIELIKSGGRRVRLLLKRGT
IL16_3, Q14005, sequence (Q14005 1107-1207): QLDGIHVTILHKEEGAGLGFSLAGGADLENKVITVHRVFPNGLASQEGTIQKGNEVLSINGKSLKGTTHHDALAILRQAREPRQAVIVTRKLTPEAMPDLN
LDB3, O75112, sequence (O75112 1-94): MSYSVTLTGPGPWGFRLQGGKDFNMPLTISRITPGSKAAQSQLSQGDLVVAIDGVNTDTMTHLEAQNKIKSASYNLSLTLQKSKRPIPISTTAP
GRIP2_4, Q9C0E4, sequence (Q9C0E4 446-548): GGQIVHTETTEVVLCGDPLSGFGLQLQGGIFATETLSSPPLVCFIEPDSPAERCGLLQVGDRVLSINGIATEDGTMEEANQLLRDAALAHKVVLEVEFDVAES
DLG4_2, P78352, sequence (P78352 155-259): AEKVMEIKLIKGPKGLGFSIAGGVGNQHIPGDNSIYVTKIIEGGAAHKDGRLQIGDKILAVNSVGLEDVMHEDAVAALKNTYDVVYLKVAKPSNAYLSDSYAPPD
CASK, O14936, sequence (O14936 487-570): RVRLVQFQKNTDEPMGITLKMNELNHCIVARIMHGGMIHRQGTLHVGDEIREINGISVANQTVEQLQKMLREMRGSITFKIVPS
FRMPD3, Q5JV73, sequence (Q5JV73 12-100): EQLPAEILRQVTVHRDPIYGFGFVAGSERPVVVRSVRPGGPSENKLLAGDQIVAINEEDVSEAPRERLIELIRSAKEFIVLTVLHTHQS
DLG4_1, P78352, sequence (P78352 62-152): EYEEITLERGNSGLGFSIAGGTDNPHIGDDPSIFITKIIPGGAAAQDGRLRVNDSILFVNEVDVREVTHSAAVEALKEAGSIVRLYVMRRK
MAGI2_4, Q86UL8, sequence (Q86UL8 772-865): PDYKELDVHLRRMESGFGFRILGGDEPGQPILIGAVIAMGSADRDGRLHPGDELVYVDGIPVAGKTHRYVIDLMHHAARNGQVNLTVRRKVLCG
Inadl_8, Q8NI35, sequence (Q8NI35 1425-1530): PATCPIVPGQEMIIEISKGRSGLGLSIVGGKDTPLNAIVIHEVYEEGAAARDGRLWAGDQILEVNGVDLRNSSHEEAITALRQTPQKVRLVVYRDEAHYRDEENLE
GRIP2_6, Q9C0E4, sequence (Q9C0E4 648-740): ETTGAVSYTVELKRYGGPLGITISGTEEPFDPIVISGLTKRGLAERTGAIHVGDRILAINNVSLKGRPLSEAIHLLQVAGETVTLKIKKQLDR
PTPN3, P26045, sequence (P26045 505-587): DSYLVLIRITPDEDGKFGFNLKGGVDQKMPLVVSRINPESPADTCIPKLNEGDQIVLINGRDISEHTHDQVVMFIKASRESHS
TJP1_3, Q07157, sequence (Q07157 416-512): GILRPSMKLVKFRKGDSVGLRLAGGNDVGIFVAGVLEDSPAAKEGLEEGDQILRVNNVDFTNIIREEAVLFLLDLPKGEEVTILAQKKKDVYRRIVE
GRIP2_5, Q9C0E4, sequence (Q9C0E4 544-642): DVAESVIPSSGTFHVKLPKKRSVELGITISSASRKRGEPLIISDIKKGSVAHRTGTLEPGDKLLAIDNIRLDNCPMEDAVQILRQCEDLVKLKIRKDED
LIMK2, P53671, sequence (P53671 143-248): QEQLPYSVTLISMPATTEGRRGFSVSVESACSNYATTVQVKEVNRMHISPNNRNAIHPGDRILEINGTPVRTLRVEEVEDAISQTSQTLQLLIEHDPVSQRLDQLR
SCRIB_3, Q14160, sequence (Q14160 999-1103): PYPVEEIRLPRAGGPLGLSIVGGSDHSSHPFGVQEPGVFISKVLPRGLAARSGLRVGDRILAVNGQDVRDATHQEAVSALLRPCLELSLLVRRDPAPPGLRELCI
GRIP2_3, Q9C0E4, sequence (Q9C0E4 238-339): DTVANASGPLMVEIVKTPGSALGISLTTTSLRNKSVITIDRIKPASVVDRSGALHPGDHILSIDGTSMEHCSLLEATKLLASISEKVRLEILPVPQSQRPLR
Inadl_1, Q8NI35, sequence (Q8NI35 113-229): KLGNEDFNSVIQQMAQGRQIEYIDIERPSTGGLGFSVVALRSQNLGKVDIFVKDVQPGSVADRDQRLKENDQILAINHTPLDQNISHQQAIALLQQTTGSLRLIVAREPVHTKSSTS
MAGI3_2, Q5TCQ9, sequence (Q5TCQ9 398-503): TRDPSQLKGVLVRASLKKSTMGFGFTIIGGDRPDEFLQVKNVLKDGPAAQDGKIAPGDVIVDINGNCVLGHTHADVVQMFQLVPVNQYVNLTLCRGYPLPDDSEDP

pKd (TJP1_3, Q07157)	pKd (GRIP2_4, Q9C0E4)	pKd (MAGI2_6, Q86UL8)	pKd (Inadl_8, Q8NI35)	pKd (LNX2_2, Q8N448)	pKd (DFNB31_1, Q9P202)	pKd (PDZD7_3, Q9H5P4)	pKd (DFNB31_3, Q9P202)	pKd (MPP6, Q9NZW5)	pKd (LIMK2, P53671)	pKd (Inadl_1, Q8NI35)	pKd (GRIP2_5, Q9C0E4)	pKd (SHANK1, Q9Y566)	pKd (MAGI3_2, Q5TCQ9)	pKd (LDB3, O75112)	pKd (GRIP2_3, Q9C0E4)	pKd (MAGI2_4, Q86UL8)	pKd (APBA3_1, O96018)	pKd (DLG3_3, Q92796)	pKd (PTPN3, P26045)	also measured	Binder
below the threshold	below the threshold	below the threshold	below the threshold	3.58	below the threshold	below the threshold	below the threshold	below the threshold	below the threshold	below the threshold	below the threshold	below the threshold	below the threshold	below the threshold	below the threshold	below the threshold	below the threshold	below the threshold	3.66	pKd (DLG4_1, P78352): below the threshold; pKd (MPDZ_12, O75970): below the threshold; pKd (CASK, O14936): below the threshold; pKd (FRMPD3, Q5JV73): below the threshold; pKd (GRIP2_6, Q9C0E4): below the threshold; pKd (SCRIB_3, Q14160): 3.64; pKd (DLG4_2, P78352): 3.64; pKd (IL16_3, Q14005): below the threshold; pKd (MPP2, Q14168): below the threshold	QRYPGNQTTC [CCL24, O00175]
below the threshold	below the threshold	4	4.25	5.01	3.51	4.2	below the threshold	below the threshold	below the threshold	below the threshold	below the threshold	below the threshold	5.16	below the threshold	below the threshold	4.97	below the threshold	3.85	4.54	pKd (DLG4_1, P78352): 4.33; pKd (MPDZ_12, O75970): 3.67; pKd (CASK, O14936): below the threshold; pKd (FRMPD3, Q5JV73): below the threshold; pKd (GRIP2_6, Q9C0E4): below the threshold; pKd (SCRIB_3, Q14160): 4.13; pKd (DLG4_2, P78352): 4.43; pKd (IL16_3, Q14005): below the threshold; pKd (MPP2, Q14168): below the threshold	HLSTRQGTCV [ATRNL1, Q5VV63]
below the threshold	below the threshold	4.19	3.66	4.57	below the threshold	below the threshold	3.54	4.01	below the threshold	below the threshold	below the threshold	below the threshold	below the threshold	3.9	below the threshold	4.04	below the threshold	below the threshold	3.49	pKd (DLG4_1, P78352): below the threshold; pKd (MPDZ_12, O75970): below the threshold; pKd (CASK, O14936): 4.83; pKd (FRMPD3, Q5JV73): 4.15; pKd (GRIP2_6, Q9C0E4): 3.79; pKd (SCRIB_3, Q14160): 3.98; pKd (DLG4_2, P78352): below the threshold; pKd (IL16_3, Q14005): below the threshold; pKd (MPP2, Q14168): below the threshold	VCMGDHWFDV [PRKN, O60260]
3.81	below the threshold	5.37	4.12	4.72	4.34	4.3	below the threshold	below the threshold	below the threshold	below the threshold	below the threshold	below the threshold	3.86	3.74	below the threshold	4.34	below the threshold	below the threshold	5.07	pKd (DLG4_1, P78352): 4.37; pKd (MPDZ_12, O75970): 4.65; pKd (CASK, O14936): below the threshold; pKd (FRMPD3, Q5JV73): 3.71; pKd (GRIP2_6, Q9C0E4): below the threshold; pKd (SCRIB_3, Q14160): 4.4; pKd (DLG4_2, P78352): 4.72; pKd (IL16_3, Q14005): below the threshold; pKd (MPP2, Q14168): below the threshold	HYPASPDSWV [CTNND2, Q9UQB3]
